This assay deals with matrilin-3 (wild type, mouse) (mouse (endogenous in mouse cartilage and chondrocytes)) (UniProt O35701). The assay can be described thus: non-reducing SDS-PAGE and Western blot; total protein lysates of isolated chondrocytes of 5-day-old mice, 4-12% gels, non-reduced against reduced (0.1 M DTT); oligomers assigned by apparent size. In general terms: A western blot detects proteins with antibodies after separation by electrophoresis.

Sequence of matrilin-3 (wild type, mouse) (O35701 28-481): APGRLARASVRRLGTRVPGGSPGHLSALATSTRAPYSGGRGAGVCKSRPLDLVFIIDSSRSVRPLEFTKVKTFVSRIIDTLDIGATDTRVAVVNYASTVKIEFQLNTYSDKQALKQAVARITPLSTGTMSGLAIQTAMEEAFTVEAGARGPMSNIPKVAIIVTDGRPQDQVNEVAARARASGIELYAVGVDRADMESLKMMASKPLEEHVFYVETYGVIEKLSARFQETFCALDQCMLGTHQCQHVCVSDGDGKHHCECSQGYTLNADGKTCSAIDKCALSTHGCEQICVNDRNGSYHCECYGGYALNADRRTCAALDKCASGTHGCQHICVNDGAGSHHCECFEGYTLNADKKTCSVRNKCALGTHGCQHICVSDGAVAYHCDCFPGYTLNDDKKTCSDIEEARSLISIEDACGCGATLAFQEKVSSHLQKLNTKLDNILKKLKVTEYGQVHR

For the substance “matrilin-3 (wild type, mouse) (from UniProt O35701 28-481) (natural protein)”, the stoichiometry N came to 4.

As a reminder, the stoichiometry N is the number of molecules, sites or subunits per partner or assembly.

Values taken from PMC3744072.
